T1: human GIP receptor (human, UniProt P48546 22-466)
T1 sequence (looked up): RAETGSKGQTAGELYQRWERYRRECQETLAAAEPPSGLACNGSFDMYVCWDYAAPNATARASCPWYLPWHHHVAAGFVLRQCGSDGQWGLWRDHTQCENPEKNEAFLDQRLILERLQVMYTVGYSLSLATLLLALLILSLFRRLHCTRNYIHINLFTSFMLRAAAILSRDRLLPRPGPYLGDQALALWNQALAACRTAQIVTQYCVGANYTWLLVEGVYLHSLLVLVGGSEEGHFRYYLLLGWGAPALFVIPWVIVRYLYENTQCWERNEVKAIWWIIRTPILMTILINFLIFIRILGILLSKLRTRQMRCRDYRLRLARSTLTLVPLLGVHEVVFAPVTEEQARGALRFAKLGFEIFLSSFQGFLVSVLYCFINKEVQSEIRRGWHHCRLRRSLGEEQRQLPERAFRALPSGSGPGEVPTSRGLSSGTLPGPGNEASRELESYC

B1: AT642 (peptide)
peptide: PETFISDYSIAMDKIK(C16 diacid)QQDFVNWLLAQKPSSGAPPPS-OH
modifications: N-terminus assumed
SMILES: CC[C@H](C)[C@H](NC(=O)[C@H](CO)NC(=O)[C@H](Cc1ccc(O)cc1)NC(=O)[C@H](CC(=O)O)NC(=O)[C@H](CO)NC(=O)[C@@H](NC(=O)[C@H](Cc1ccccc1)NC(=O)[C@@H](NC(=O)[C@H](CCC(=O)O)NC(=O)[C@@H]1CCCN1)[C@@H](C)O)[C@@H](C)CC)C(=O)N[C@@H](C)C(=O)N[C@@H](CCSC)C(=O)N[C@@H](CC(=O)O)C(=O)N[C@@H](CCCCN)C(=O)N[C@H](C(=O)N[C@@H](CCCCNC(=O)CCCCCCCCCCCCCCC(=O)O)C(=O)N[C@@H](CCC(N)=O)C(=O)N[C@@H](CCC(N)=O)C(=O)N[C@@H](CC(=O)O)C(=O)N[C@@H](Cc1ccccc1)C(=O)N[C@H](C(=O)N[C@@H](CC(N)=O)C(=O)N[C@@H](Cc1c[nH]c2ccccc12)C(=O)N[C@@H](CC(C)C)C(=O)N[C@@H](CC(C)C)C(=O)N[C@@H](C)C(=O)N[C@@H](CCC(N)=O)C(=O)N[C@@H](CCCCN)C(=O)N1CCC[C@H]1C(=O)N[C@@H](CO)C(=O)N[C@@H](CO)C(=O)NCC(=O)N[C@@H](C)C(=O)N1CCC[C@H]1C(=O)N1CCC[C@H]1C(=O)N1CCC[C@H]1C(=O)N[C@@H](CO)C(=O)O)C(C)C)[C@@H](C)CC
B2: AT640 (peptide)
peptide: [Aib]ETFISDYSIAMDKIK(C16 diacid)QQDFVNWLLAQKPSSGAPPPS-OH
modifications: N-terminus assumed
SMILES: CC[C@H](C)[C@H](NC(=O)[C@H](CO)NC(=O)[C@H](Cc1ccc(O)cc1)NC(=O)[C@H](CC(=O)O)NC(=O)[C@H](CO)NC(=O)[C@@H](NC(=O)[C@H](Cc1ccccc1)NC(=O)[C@@H](NC(=O)[C@H](CCC(=O)O)NC(=O)C(C)(C)N)[C@@H](C)O)[C@@H](C)CC)C(=O)N[C@@H](C)C(=O)N[C@@H](CCSC)C(=O)N[C@@H](CC(=O)O)C(=O)N[C@@H](CCCCN)C(=O)N[C@H](C(=O)N[C@@H](CCCCNC(=O)CCCCCCCCCCCCCCC(=O)O)C(=O)N[C@@H](CCC(N)=O)C(=O)N[C@@H](CCC(N)=O)C(=O)N[C@@H](CC(=O)O)C(=O)N[C@@H](Cc1ccccc1)C(=O)N[C@H](C(=O)N[C@@H](CC(N)=O)C(=O)N[C@@H](Cc1c[nH]c2ccccc12)C(=O)N[C@@H](CC(C)C)C(=O)N[C@@H](CC(C)C)C(=O)N[C@@H](C)C(=O)N[C@@H](CCC(N)=O)C(=O)N[C@@H](CCCCN)C(=O)N1CCC[C@H]1C(=O)N[C@@H](CO)C(=O)N[C@@H](CO)C(=O)NCC(=O)N[C@@H](C)C(=O)N1CCC[C@H]1C(=O)N1CCC[C@H]1C(=O)N1CCC[C@H]1C(=O)N[C@@H](CO)C(=O)O)C(C)C)[C@@H](C)CC
B3: AT641 (peptide)
peptide: GETFISDYSIAMDKIK(C16 diacid)QQDFVNWLLAQKPSSGAPPPS-OH
modifications: N-terminus assumed
SMILES: CC[C@H](C)[C@H](NC(=O)[C@H](CO)NC(=O)[C@H](Cc1ccc(O)cc1)NC(=O)[C@H](CC(=O)O)NC(=O)[C@H](CO)NC(=O)[C@@H](NC(=O)[C@H](Cc1ccccc1)NC(=O)[C@@H](NC(=O)[C@H](CCC(=O)O)NC(=O)CN)[C@@H](C)O)[C@@H](C)CC)C(=O)N[C@@H](C)C(=O)N[C@@H](CCSC)C(=O)N[C@@H](CC(=O)O)C(=O)N[C@@H](CCCCN)C(=O)N[C@H](C(=O)N[C@@H](CCCCNC(=O)CCCCCCCCCCCCCCC(=O)O)C(=O)N[C@@H](CCC(N)=O)C(=O)N[C@@H](CCC(N)=O)C(=O)N[C@@H](CC(=O)O)C(=O)N[C@@H](Cc1ccccc1)C(=O)N[C@H](C(=O)N[C@@H](CC(N)=O)C(=O)N[C@@H](Cc1c[nH]c2ccccc12)C(=O)N[C@@H](CC(C)C)C(=O)N[C@@H](CC(C)C)C(=O)N[C@@H](C)C(=O)N[C@@H](CCC(N)=O)C(=O)N[C@@H](CCCCN)C(=O)N1CCC[C@H]1C(=O)N[C@@H](CO)C(=O)N[C@@H](CO)C(=O)NCC(=O)N[C@@H](C)C(=O)N1CCC[C@H]1C(=O)N1CCC[C@H]1C(=O)N1CCC[C@H]1C(=O)N[C@@H](CO)C(=O)O)C(C)C)[C@@H](C)CC
B4: AT644 (peptide)
peptide: GETFISDYAIALDKIK(C16 diacid)QQDFVEWLLAQGPSSGAPPPS-OH
modifications: N-terminus assumed
SMILES: CC[C@H](C)[C@H](NC(=O)[C@H](C)NC(=O)[C@H](Cc1ccc(O)cc1)NC(=O)[C@H](CC(=O)O)NC(=O)[C@H](CO)NC(=O)[C@@H](NC(=O)[C@H](Cc1ccccc1)NC(=O)[C@@H](NC(=O)[C@H](CCC(=O)O)NC(=O)CN)[C@@H](C)O)[C@@H](C)CC)C(=O)N[C@@H](C)C(=O)N[C@@H](CC(C)C)C(=O)N[C@@H](CC(=O)O)C(=O)N[C@@H](CCCCN)C(=O)N[C@H](C(=O)N[C@@H](CCCCNC(=O)CCCCCCCCCCCCCCC(=O)O)C(=O)N[C@@H](CCC(N)=O)C(=O)N[C@@H](CCC(N)=O)C(=O)N[C@@H](CC(=O)O)C(=O)N[C@@H](Cc1ccccc1)C(=O)N[C@H](C(=O)N[C@@H](CCC(=O)O)C(=O)N[C@@H](Cc1c[nH]c2ccccc12)C(=O)N[C@@H](CC(C)C)C(=O)N[C@@H](CC(C)C)C(=O)N[C@@H](C)C(=O)N[C@@H](CCC(N)=O)C(=O)NCC(=O)N1CCC[C@H]1C(=O)N[C@@H](CO)C(=O)N[C@@H](CO)C(=O)NCC(=O)N[C@@H](C)C(=O)N1CCC[C@H]1C(=O)N1CCC[C@H]1C(=O)N1CCC[C@H]1C(=O)N[C@@H](CO)C(=O)O)C(C)C)[C@@H](C)CC
B5: AT646 (peptide)
peptide: GETFISTYSIALDKIK(C16 diacid)QQDFVEWLLAQKPSSGAPPPS-OH
modifications: N-terminus assumed
SMILES: CC[C@H](C)[C@H](NC(=O)[C@H](CO)NC(=O)[C@H](Cc1ccc(O)cc1)NC(=O)[C@@H](NC(=O)[C@H](CO)NC(=O)[C@@H](NC(=O)[C@H](Cc1ccccc1)NC(=O)[C@@H](NC(=O)[C@H](CCC(=O)O)NC(=O)CN)[C@@H](C)O)[C@@H](C)CC)[C@@H](C)O)C(=O)N[C@@H](C)C(=O)N[C@@H](CC(C)C)C(=O)N[C@@H](CC(=O)O)C(=O)N[C@@H](CCCCN)C(=O)N[C@H](C(=O)N[C@@H](CCCCNC(=O)CCCCCCCCCCCCCCC(=O)O)C(=O)N[C@@H](CCC(N)=O)C(=O)N[C@@H](CCC(N)=O)C(=O)N[C@@H](CC(=O)O)C(=O)N[C@@H](Cc1ccccc1)C(=O)N[C@H](C(=O)N[C@@H](CCC(=O)O)C(=O)N[C@@H](Cc1c[nH]c2ccccc12)C(=O)N[C@@H](CC(C)C)C(=O)N[C@@H](CC(C)C)C(=O)N[C@@H](C)C(=O)N[C@@H](CCC(N)=O)C(=O)N[C@@H](CCCCN)C(=O)N1CCC[C@H]1C(=O)N[C@@H](CO)C(=O)N[C@@H](CO)C(=O)NCC(=O)N[C@@H](C)C(=O)N1CCC[C@H]1C(=O)N1CCC[C@H]1C(=O)N1CCC[C@H]1C(=O)N[C@@H](CO)C(=O)O)C(C)C)[C@@H](C)CC
B6: AT643 (peptide)
peptide: DTTFISDYSIAMDKIK(C16 diacid)QQDFVNWLLAQKPSSGAPPPS-OH
modifications: N-terminus assumed
SMILES: CC[C@H](C)[C@H](NC(=O)[C@H](CO)NC(=O)[C@H](Cc1ccc(O)cc1)NC(=O)[C@H](CC(=O)O)NC(=O)[C@H](CO)NC(=O)[C@@H](NC(=O)[C@H](Cc1ccccc1)NC(=O)[C@@H](NC(=O)[C@@H](NC(=O)[C@@H](N)CC(=O)O)[C@@H](C)O)[C@@H](C)O)[C@@H](C)CC)C(=O)N[C@@H](C)C(=O)N[C@@H](CCSC)C(=O)N[C@@H](CC(=O)O)C(=O)N[C@@H](CCCCN)C(=O)N[C@H](C(=O)N[C@@H](CCCCNC(=O)CCCCCCCCCCCCCCC(=O)O)C(=O)N[C@@H](CCC(N)=O)C(=O)N[C@@H](CCC(N)=O)C(=O)N[C@@H](CC(=O)O)C(=O)N[C@@H](Cc1ccccc1)C(=O)N[C@H](C(=O)N[C@@H](CC(N)=O)C(=O)N[C@@H](Cc1c[nH]c2ccccc12)C(=O)N[C@@H](CC(C)C)C(=O)N[C@@H](CC(C)C)C(=O)N[C@@H](C)C(=O)N[C@@H](CCC(N)=O)C(=O)N[C@@H](CCCCN)C(=O)N1CCC[C@H]1C(=O)N[C@@H](CO)C(=O)N[C@@H](CO)C(=O)NCC(=O)N[C@@H](C)C(=O)N1CCC[C@H]1C(=O)N1CCC[C@H]1C(=O)N1CCC[C@H]1C(=O)N[C@@H](CO)C(=O)O)C(C)C)[C@@H](C)CC

*1 amine or outer side, *2 acyl side, *3 side chain or, on linkers, in order; H or OH if unused. Where no end group is shown, it is not given here. Side-chain parts run from the residue outwards. [ ]: non-standard residue; d: D form. The star is where a group is joined. C16 diacid = O=C(O)CCCCCCCCCCCCCCC(=O)*; γGlu = O=C(O)[C@H](CCC(=O)[*:2])N[*:1]; Aib = CC(C)(N)C(=O)O

The assay deals with T1, human GIP receptor. Kind of assay: cell-based or functional assay.
Turning to B1, the “cAMP agonism % Emax” value is 0%, the “cAMP antagonism” value is 35.5 nM, the “cAMP antagonism % inhib” value is 92% and the “cAMP antagonism pIC50” value turned out to be 7.5.
Taken in the same sequence, the figures for B2 were 0%, 7.08 nM, 90% and 8.2.
Take B3: the “cAMP agonism % Emax” value was 0%, the “cAMP antagonism” value was 7.94 nM, the “cAMP antagonism % inhib” value turned out to be 91% and the “cAMP antagonism pIC50” value stood at 8.1.
For B4 the same measures were 0%, 17.1 nM, 93% and 7.8.
For B5 the same measures were 0%, 10 nM, 96% and 8.
For B6 the same measures were 0%, 11.2 nM, 90% and 8.
As for EGTFISTYK([γGlu-C16 diacid])IALDKIHQQDFVEWLLAQKPSSGAPPPS-OH [AT647], the “cAMP agonism % Emax” value turned out to be 0%, the “cAMP antagonism” value came to 18.8 nM, the “cAMP antagonism % inhib” value turned out to be 100% and the “cAMP antagonism pIC50” value is 7.7.

For the origin of these results see patent US20220298218A1 (ANTAG THERAPEUTICS, published 2022).
